Biological target: Bluetongue virus (BTV-1) membrane penetration protein VP5 (bluetongue virus (BTV-1))
Assay: cryo-EM structure

Work on “Bluetongue virus (BTV-1) membrane penetration protein VP5 (natural protein)” yielded a stoichiometry N of 3.
